Three molecules from patent US7217694B2, “Inhibitors of IAPP fibril formation and uses thereof” (The Governing Counsel of the University of Toronto, priority 2000, dated 2007) can be followed below.

Entries after “also recorded” stand apart in the source; their conditions may differ. No end group written: not given here.

One series has as its system RIN-1056A cells. As to the kind of experiment: IAPP toxicity assay (alamar Blue). It is filed as cell-based. How it is done:
RIN-1056A cells were plated into 96 well plates at a density of 2×10^4 cells/well in Dulbecco's Modified Eagle Medium (DMEM) (Gibco-BRL) supplemented with 5% Fetal calf serum (Gibco-BRL), 100 U/ml penicillin (Gibco-BRL), and 100 U/ml streptomycin (Gibco-BRL). After an initial 24 h of culture, cells received fresh medium containing 10 μM hIAPP or rat IAPP alone, or in combination with 200 μM SNNFGA (SEQ ID NO. 11). Cells in control wells received fresh medium only. Cells were incubated with peptide at 37° C., 5% CO2, for 24 hours, after which alamar Blue ( 1/10th volume) was added to each well. Cells were incubated in the presence of alamar Blue (MEDICORP, Montreal) for a period of 8 hours, and data was collected at 2 hour intervals. The fluorescence of the samples was measured using a SpectraMAX Gemini XS Microplate Spectrofluorometer (Molecular Devices) with an excitation wavelength of […] and an emission wavelength of 590 nm. Data were collected using the SoftMax Pro 3.1 software for MacIntosh.
The toxicity of hIAPP fibrils on pancreatic β cell lines has been well documented. […] cells were incubated for 24 hours in the presence of 10 μM hIAPP alone or in the presence of the peptide SNNFGA (SEQ ID NO. 11). An alamar Blue assay was used to quantitatively measure the proliferation of the cells, and compare the cytotoxic effects of various additives to the cultures.

Series [1] addresses T1, hIAPP 1–37 (Homo sapiens, UniProt P10997).
T1 construct: Synthetic human IAPP (1–37) was purchased from BACHEM; purchased BACHEM (Torrence, Calif.); host or cells: chemical synthesis
T1 sequence (P10997 34-70): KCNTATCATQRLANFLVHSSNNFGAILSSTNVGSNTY
As to the kind of experiment: Sedimentation assay (tyrosine scan) of soluble versus insoluble hIAPP. The series is classed as biochemical. The settings on record: hIAPP 11 μM with 10 fold excess (110 μM) peptide. How it is done: Aliquots of lyophilized hIAPP 1–37 were dissolved in 20 mM acetate buffer (pH 6.5) to 11 μM and incubated in a total volume of 500 μl at room temperature. Tyrosine emission spectra were collected (emission wavelength 275 nm) on a Beckman DU530 spectrophotometer for each sample at time 0. Following a 24 hour incubation at room temperature, the soluble and aggregated peptides in each sample were separated by centrifugation at 16,000 g for 20 minutes, and the emission spectra were measured on the soluble fractions. The samples were then vortexed to resuspend the entire contents of each tube, and were incubated for an additional 24 hours. This process was repeated for a total of 72 hours of incubation. For co-incubation experiments, hIAPP was incubated with a 10 fold excess concentration (110 μM) of the inhibitory peptides SNNFGA (SEQ ID NO. 11), and GAILSS (SEQ ID NO. 14).
Sedimentation assays were performed to confirm the results from CD and electron microscopic analysis (FIGS. 7A and 7B) on the ability of peptides SNNFGA (SEQ ID NO. 11) and GAILSS (SEQ ID NO. 14) to inhibit IAPP fibril formation. hIAPP (11 μM) was incubated for a period of 72 hours in 20 mM acetate buffer alone, or with a 10 fold excess (110 μM) of the peptides.
A tyrosine scan was used to determine the amount of soluble hIAPP remaining in solution after a 72-hour incubation. […] Following a 24-hour incubation, the amount of soluble hIAPP had reduced to 8%. However, when hIAPP was incubated in the presence of the peptide SNNFGA (SEQ ID NO. 11), the amount of IAPP remaining in solution was approximately […], and in the presence of peptide GAILSS (SEQ ID NO. 14), more than 80% of the hIAPP remained in solution. By 48 hours, the hIAPP incubated alone was no longer soluble and was not detectable using a tyrosine scan. However, approximately 25% of the hIAPP was still measured when co-incubated with either peptide. Similarly, after 72 hours approximately 20% of the hIAPP was still soluble in the sample co-incubated with peptide SNNFGA (SEQ ID NO. 11) or GAILSS (SEQ ID NO. 14).

Series [2] has as its target T1, hIAPP 1–37. As to the kind of experiment: Circular dichroism (CD) of IAPP conformational change, random coil to β-sheet. It is filed as biochemical. The source says: (§1) FIG. 1 illustrates the sequence of the amyloid-β (Aβ) peptide and its proposed structural domains. A peptide-based approach similar to that used for Aβ (Tjernberg, et al, J Biol Chem 272:12601–12605, 1997) has been used for targeting two key domains in IAPP initially ranging from the 8–20 and 20–29 sequences as shown in FIG. 2. These peptides, as has been shown for Aβ peptides, are able to bind to the full-length IAPP peptide and alter fibrillogenesis. The peptides disrupt fibrillogenesis by disrupting the folding into the amyloidogenic β-sheet conformation, disrupting protofilament interactions, and/or interfering with side chain interactions within the folded IAPP, which are necessary for aggregation and fibril formation. The peptides that have been examined (shown in FIG. 2) were small, synthetic hexapeptides that correspond to the principal sequence domains of IAPP. […] The in vitro assays included: Circular Dichroism (CD), to look at changes in folding of the amyloidogenic β-sheet; negative stain electron microscopy (EM) to examine changes in fibril morphology and relative density; and ThT fluorescence assay which provides a quantitative assessment of fibril formation.
Synthetic human IAPP (1–37) was purchased from BACHEM (Torrence, Calif.), synthetic peptides spanning the region from IAPP 8 to 20 and 19–31 (FIG. 3) were synthesized by the Peptide Synthesis Laboratory at the University of Toronto using standard FMOC (Fluoroenylmethoxycarbonyl) based solid phase peptide synthesis methodology. The peptides were purified by reverse phase HPLC using water/acetonitrile mixtures buffered with 0. 1% trifluoroacetic acid, on a POROS 20R2 column. The synthetic peptides were solubilized in […] (1 mg/ml), filtered (0.2 μm), aliquotted and lyophilized (Higham, C E., et al., FEBS Lett. 470: 55–60, 2000). Aliquots were reconstituted as required in 20 mM sodium acetate buffer pH 6.5.
CD was used to measure the peptide conformational changes associated with fibril formation. CD experiments were carried out at room temperature, and spectra (average of 5 scans) were collected using a Jasco J720 spectropolarimeter and quartz cuvettes with a path length of 1 mm. […]

In series [3] the target is T1, hIAPP 1–37. Nature of the series: Negative stain electron microscopy of IAPP fibril morphology and density. It is filed as biochemical.
Description: as §1
TEM was used for structural analysis of in vitro assembled fibrils. Aliquots (4 μl) were applied to pioloform and carbon coated grids. The samples were incubated on the grids for 3 minutes at room temperature, excess material blotted off and stained with 1% phosphotungstic acid (PTA). Excess PTA was blotted off and the sample was left to air dry. All samples were examined using a Hitachi 7000 electron microscope with an accelerating voltage of 75 kV.
In preliminary work the series of peptides were synthesized from the 20–29 domain and examined, via CD, EM and ThT fluorescence, at two molar ratios (1:10 and 1:20) in comparison to the full-length IAPP residues 1–37. The following data (FIGS. 5A to 5D, 6A to 6C and 7A to 7B) were obtained.

Setting [4] is: 24-hour incubation, normalized to hIAPP alone at time 0.

`CC[C@H](C)[C@H](NC(=O)[C@H](C)NC(=O)CNC(=O)[C@H](Cc1ccccc1)NC(=O)[C@H](CC(N)=O)NC(=O)[C@H](CC(N)=O)NC(=O)[C@H](CO)NC(=O)[C@H](CO)NC(=O)[C@H](Cc1c[nH]cn1)NC(=O)[C@@H](NC(=O)[C@H](CC(C)C)NC(=O)[C@H](Cc1ccccc1)NC(=O)[C@H](CC(N)=O)NC(=O)[C@H](C)NC(=O)[C@H](CC(C)C)NC(=O)[C@H](CCCNC(=N)N)NC(=O)[C@H](CCC(N)=O)NC(=O)[C@@H](NC(=O)[C@H](C)NC(=O)[C@@H]1CSSC[C@H](NC(=O)[C@@H](N)CCCCN)C(=O)N[C@@H](CC(N)=O)C(=O)N[C@@H]([C@@H](C)O)C(=O)N[C@@H](C)C(=O)N[C@@H]([C@@H](C)O)C(=O)N1)[C@@H](C)O)C(C)C)C(=O)N[C@@H](CC(C)C)C(=O)N[C@@H](CO)C(=O)N[C@@H](CO)C(=O)N[C@H](C(=O)N[C@@H](CC(N)=O)C(=O)N[C@H](C(=O)NCC(=O)N[C@@H](CO)C(=O)N[C@@H](CC(N)=O)C(=O)N[C@H](C(=O)N[C@@H](Cc1ccc(O)cc1)C(N)=O)[C@@H](C)O)C(C)C)[C@@H](C)O` [hIAPP, reference compound]: the “decrease in cell viability compared to cells in culture medium alone” value in the series on RIN-1056A cells (10 μM hIAPP, 24 hours) is recorded as 35–40%.
Regarding SNNFGA [SNNFGA], the “amount of hIAPP remaining in solution” value is reported as “approximately 15%” at hIAPP 1–37 [1] (setting [4]), “approximately 25%” on hIAPP 1–37 [1] (48 hours) and “approximately 20%” at hIAPP 1–37 [1] (72 hours). Moreover, the “direct toxicity of the peptide to pancreatic β cells in culture” value with RIN-1056A cells is on record as “not directly toxic”.
Take GAILSS: the “inhibition of IAPP β-sheet transition and aggregation (CD)” value with hIAPP 1–37 [2] (1:10 or 1:20 molar ratio (10- or 20-fold molar excess)) is on record as “very strong inhibitors of IAPP β-sheet transition; also recorded: majority of IAPP in these samples was maintained in a random conformation”. The “inhibition of IAPP β-sheet conformational change at reduced concentrations (CD)” value with hIAPP 1–37 [2] (5-fold molar excess (1:5) or 1:1 molar ratio) is on record as “very strong inhibitor; also recorded: capable of maintaining the majority of hIAPP in a random coil conformation”. Also, the “effect on IAPP β-sheet formation / precipitation (CD)” value with hIAPP 1–37 [2] (48-hour incubation, pH 6.5) was “able to prevent the attenuation of signal due to precipitation of IAPP”. In addition, the “inhibition of IAPP β-sheet formation / fibril formation, overall statement (CD)” value with hIAPP 1–37 [2] (molar ratio not stated) is recorded as “greatest inhibition of IAPP fibril formation”. For the same molecule, the “effect on initial random structure of IAPP (CD)” value with hIAPP 1–37 [2] (time 0, 1:10 or 1:20 molar ratio) is on record as “had no effect on the initial random structure of IAPP”. Moreover, the “amount of hIAPP remaining in solution” value is reported as “more than 80%” in the series with hIAPP 1–37 [1] (setting [4]), “approximately 25%” with hIAPP 1–37 [1] (48 hours) and “approximately 20%” in the series with hIAPP 1–37 [1] (72 hours). Besides, the “prevention of IAPP fibril formation (EM)” value in the series with hIAPP 1–37 [3] (10- or 20-fold molar excess) is given as “did not completely prevent fibril formation”. Besides, the “effect on IAPP fibril morphology / density / aggregation (EM)” value with hIAPP 1–37 [3] (molar ratio not stated) is “caused a disruption in IAPP fibrillar structure; also recorded: fibrils formed were less numerous; also recorded: absence of fibrillar aggregates which could act as seeds”. In the series with hIAPP 1–37 [3] (reduced inhibitor concentrations), the “inhibition of normal IAPP fibrillar aggregation (EM)” value was “effective inhibitors of normal IAPP fibrillar aggregation”.
